Assay results: US20130330294A1, “Serum Amyloid A (SAA) Overrides Regulatory T Cells (TREG) Anergy” (The Board of Trustees of the Leland Stanford Junior …, priority 2010, published 2013)

Key:
SOCS3 in Treg = assay: SOCS3 expression in forskolin-treated Treg by intracellular staining; type: cell-based, human; conditions: after 24 hour stimulation
Protocol: To evaluate effects of plasma on suppression assays and immune cell cultures, frozen plasma samples were thawed at 25° C. and debris were removed with sterile 40 μm filters (BD Biosciences). All plasma samples were tested in duplicates or triplicates. To control for variations in suppressive and proliferative potentials of Treg and Teff, respectively, both HC and SJIA plasma samples were used in parallel suppression assays with the same set of purified cells for each round of experiments. In addition, fold change in 3H-thymidine cpm in assays with plasma compared to those in complete media alone, was computed to analyze the effects of plasma in suppression assays or stimulation assays. In CFSE assays, percentage of proliferating cells (shown by dye dilution) was used to analyze the effects of plasma on cell proliferation. IL-1Ra, neutralizing antibody against IL-6 and TNF-α (R&D System), and recombinant IL-1, IL-6 (Peprotech) were used to evaluate the roles of these cytokines in suppression assays. Recombinant SAA (Peprotech) was used at different concentrations in suppression assays in the presence of polymixin (5 μg/ml). […] To pharmacologically modulate SOCS3, isolated Treg were cultured with forskolin (Calbiochem) at different concentrations and analyzed for SOCS3 expression at different time points. […]

[1] = system: pERK1/2, pAKT, pSTAT3 in Treg and Teff; assay: Phosphorylation of ERK1/2, AKT and STAT3 in Treg and Teff in suppression assays by FACS; type: cell-based, human; conditions: assays with SJIA plasma, day 4; IL-1 RA 1 μM, anti-IL-6 1 μg/ml
Protocol: (§1) Detection of surface markers and intracellular molecules was performed. Antibodies used in these experiments included anti-human RAGE, SOCS3 (Abcam), CD14-FITC, DR-FITC, Foxp3-FITC, Lin (mixture of CD3, CD14, CD16, CD19, CD56)-FITC, CD14-PE, CD25-PE, CD40-PE, CD83-PE, CD127-PE, HVEM-PE, PDL2-PE, IL-1-PE, IL-6-PE, CD3-PerCP, CD4-PerCP, CD19-PerCP, CD25-PerCP, DR-PerCP, Lin-PerCP, CD3-APC, CD4-APC, CD14-APC, CD36-APC, CD86-APC, TLR2-APC, TLR4-APC, PDL1-APC, CCR7-APC, IL-6-APC, Lin-APC (Biolegend), Ki-67 FITC, pSTAT3 Alexa-647, pAKT Alexa-647, pERK1/2 Alexa-647 (BD Biosciences), and FPRL-1-APC(R&D System). Antibodies to mouse proteins used in these experiments included anti-CD25-PE, CD4-PerCP, CD11b-PerCP, CD115-APC, and Foxp3-APC (Biolegend). For in vitro experiments, to assay for expression of different surface and intracellular molecules in a specific cell subset (Treg, Teff or APC) in mixed cell cultures, the relevant subset was labeled with CFSE prior to suppression assays. Cells were pelleted at various time points and underwent standard staining protocols of the manufacturers. For in vivo experiments, cells were harvested from the peritoneal cavity and underwent flow cytometric analysis.

Treg and Teff [2] = assay: CFSE-based Treg suppression assay with APC; type: cell-based, human
Protocol: Carboxyfluorescein diacetate succinimidyl ester (CFSE) dilution assay was used for measuring T cell proliferation in suppression assays. Briefly, Treg were labeled with CFSE using Cell Tracer CFSE Cell Proliferation kit (Molecular Probes) at a final concentration of 10 μM, according to manufacturer's instructions. Assays with labeled cells were performed as described for 3H-thymidine-based suppression assays. After 7 days of culture, cells were harvested and dye dilution was analyzed by flow cytometry. Stimulation assays were set up similarly with allogeneic irradiated APC and only one type of CFSE-labeled T cells (either Treg or Teff). For APC fixation, these cells were first re-suspended in PBS+10% FBS+1% paraformaldehyde for […] at 37° C. Fixed cells were pelleted by centrifugation, washed and then cultured in complete media.
To evaluate effects of plasma on suppression assays and immune cell cultures, frozen plasma samples were thawed at 25° C. and debris were removed with sterile 40 μm filters (BD Biosciences). All plasma samples were tested in duplicates or triplicates. To control for variations in suppressive and proliferative potentials of Treg and Teff, respectively, both HC and SJIA plasma samples were used in parallel suppression assays with the same set of purified cells for each round of experiments. In addition, fold change in 3H-thymidine cpm in assays with plasma compared to those in complete media alone, was computed to analyze the effects of plasma in suppression assays or stimulation assays. In CFSE assays, percentage of proliferating cells (shown by dye dilution) was used to analyze the effects of plasma on cell proliferation. IL-1Ra, neutralizing antibody against IL-6 and TNF-α (R&D System), and recombinant IL-1, IL-6 (Peprotech) were used to evaluate the roles of these cytokines in suppression assays. […] To pharmacologically modulate SOCS3, isolated Treg were cultured with forskolin (Calbiochem) at different concentrations and analyzed for SOCS3 expression at different time points.

peritoneal Treg and Teff = assay: In vivo effects of SAA on Treg frequency and proliferation (intraperitoneal injection); design: species or system C57B6 mice; conditions: 16 hours
Protocol: as §1, with “C57B6 mice (male, 8 to 10 weeks old) were purchased from Jackson Laboratory. Mice were injected intraperitoneally with recombinant human SAA (Peprotech, 30 μg in 100 μl PBS), purified human serum albumin (Sigma Aldrich, 30 μg in 100 μl PBS), or endotoxin (Sigma Aldrich, 0.25 ng in 100 μl PBS). Animals were sacrificed 16 hours later; peritoneal cells were harvested and stained for surface and intracellular markers to detect Treg frequency and proliferation. In vivo depletion of monocytes was performed with clodronate liposomes (Encapsula). In these experiments, 400 μl of clodronate or empty liposomes were injected intraperitoneally 24 hours before SAA injection. Detection” for “Detection”, “[…],” for “CD127-PE, HVEM-PE, PDL2-PE, IL-1-PE, IL-6-PE,”

Treg and Teff [3] = assay: Suppression assay without APC (anti-CD3 and anti-CD28 as T cell stimuli); type: cell-based, human; conditions: recombinant SAA 25 μg/ml
Protocol: Standard 3H-thymidine-based suppression assays were performed to analyze Treg function. Autologous Treg and Teff were cultured at 3,750 cells per 50 μl per well in complete media (RPMI+10% FBS+1% L-glutamine) with allogeneic irradiated CD3-depleted peripheral blood mononuclear cells (antigen presenting cells or APC), at 37,500 cells per 50 μl per well. Anti-CD3 antibodies (clone UCHT1, BD Biosciences) were pre-coated on U-bottom 96 well plates at 5 μg/ml for 4 hours at 37° C. before suppression assays. Additional media was added so the final volume in each well was 200 μl. On day 6, cells were pulsed with 1 μCi 3H-thymidine (25 μl) per well and harvested on day 7 with a Tomtec cell harvester. 3H-thymidine incorporation was determined using a 1450 microbeta Wallac Trilux liquid scintillation counter. […] Stimulation assays were set up similarly with allogeneic irradiated APC and only one type of T cell (either Treg or Teff). All assays were performed in triplicates. For suppression assays without APC, anti-CD3 antibodies at 5 μg/ml final concentration (clone UCHT1, BD Biosciences) were plate-bound in U-bottom 96-well plates for 4 hours at 37° C. Soluble anti-CD28 (5 μg/ml, BD Biosciences) was added, followed by Teff (40,000 cells per 50 μl per well) and Treg (40,000 cells per 50 μl per well). […]

[4] = system: APC, monocytes and B cells; assay: Secreted and intracellular cytokines in suppression assays, APC, monocyte and B cell cultures; type: cell-based, human; conditions: 25 μg/ml, polymixin 5 μg/ml, 24 hours
Protocol: Both suppression assays and APC cultures were set up for supernatant collection. For APC cultures, 50 μl of APC stock solution (750,000 cells per ml) were incubated in a final volume of 200 μl per well in complete media. Plasma samples were used at 35 μl per well. At different time points, supernatants were collected after centrifugation to pellet cells; supernatants representing samples from the same experimental conditions were pooled from 6 wells of 96-well plates and stored at −80° C. until analysis. To detect cytokines in the supernatants, cytometric bead arrays (BD Biosciences) and ELISA (R&D System) were used according to manufacturers' protocols. Similar assays were performed for plasma samples from HC and SJIA subjects.
Detection of surface markers and intracellular molecules was performed. Antibodies used in these experiments included anti-human RAGE, SOCS3 (Abcam), CD14-FITC, DR-FITC, Foxp3-FITC, Lin (mixture of CD3, CD14, CD16, CD19, CD56)-FITC, CD14-PE, CD25-PE, CD40-PE, CD83-PE, CD127-PE, HVEM-PE, PDL2-PE, IL-1-PE, IL-6-PE, CD3-PerCP, CD4-PerCP, CD19-PerCP, CD25-PerCP, DR-PerCP, Lin-PerCP, CD3-APC, CD4-APC, CD14-APC, CD36-APC, CD86-APC, TLR2-APC, TLR4-APC, PDL1-APC, CCR7-APC, IL-6-APC, Lin-APC (Biolegend), Ki-67 FITC, pSTAT3 Alexa-647, pAKT Alexa-647, pERK1/2 Alexa-647 (BD Biosciences), and FPRL-1-APC(R&D System). […]

[5] = in the presence of polymixin (5 μg/ml)

C=C[C@@]1(C)CC(=O)[C@]2(O)[C@@]3(C)[C@@H](O)CCC(C)(C)[C@@H]3[C@H](O)[C@H](OC(C)=O)[C@@]2(C)O1 [forskolin]
optimal dosing for SOCS3 induction in Treg (SOCS3 in Treg): 100 µM

IL-1Ra: IL-1 receptor antagonist (R&D System)
phosphorylated ERK1/2 in Treg with blocking reagent [1]: abrogated the increased expression | phosphorylation of AKT in Treg with blocking reagent [1]: inhibited phosphorylation of AKT | inhibition of SJIA plasma-induced Treg proliferation (Treg and Teff [2]; suppression assays with SJIA plasma, various concentrations, IL-1 Ra 1 μM, antibodies 1 μg/ml): significant inhibition

B1: recombinant human SAA (protein, UniProt P0DJI8 19-122, looked up)
Serum amyloid A-1 protein: RSFFSFLGEAFDGARDMWRAYSDMREANYIGSDKYFHARGNYDAAKRGPGGAWAAEVITDARENIQRFFGHGAEDSLADQAANEWGRSGKDPNHFRPAGLPEKY
Treg abundance in the peritoneal cavity (peritoneal Treg and Teff; 30 μg i.p. in 100 μl PBS, vs human serum albumin or endotoxin): significant increase in Treg abundance | Teff proliferation in vivo (peritoneal Treg and Teff; 30 μg i.p.): did not enhance Teff proliferation | percentage of peritoneal Treg expressing Ki-67 (peritoneal Treg and Teff; 30 μg i.p., vs controls): significantly higher percentage | Treg proliferation in the absence of APC (Treg and Teff [3]): failed to induce Treg proliferation | IL-1 production by monocytes compared with B cells [4]: significantly higher levels | IL-6 production by monocytes compared with B cells [4]: significantly higher levels | Treg proliferation in suppression assays (Treg and Teff [2]; [5]): selectively enhance proliferation of Treg | Treg suppressive activity (Treg and Teff [2]; [5]): without reducing their suppressive activity
